The series concerns the molecule itself. Put plainly: velocity sedimentation assay.

B1: Drp1 K38A (enzyme)
chain: MEALIPVINKLQDVFNTVGADIIQLPQIVVVGTQSSGASSVLESLVGRDLLPRGTGIVTRRPLILQLVHVSQEDKRKTTGEENGVEAEEWGKFLHTKNKLYTDFDEIRQEIENETERISGNNKGVSPEPIHLKIFSPNVVNLTLVDLPGMTKVPVGDQPKDIELQIRELILRFISNPNSIILAVTAANTDMATSEALKISREVDPDGRRTLAVITKLDLMDAGTDAMDVLMGRVIPVKLGIIGVVNRSQLDINNKKSVTDSIRDEYAFLQKKYPSLANRNGTKYLARTLNRLLMHHIRDCLPELKTRINVLAAQYQSLLNSYGEPVDDKSATLLQLITKFATEYCNTIEGTAKYIETSELCGGARICYIFHETFGRTLESVDPLGGLNTIDILTAIRNATGPRPALFVPEVSFELLVKRQIKRLEEPSLRCVELVHEEMQRIIQHCSNYSTQELLRFPKLHDAIVEVVTCLLRKRLPVTNEMVHNLVAIELAYINTKHPDFADACGLMNNNIEEQRRNRLARELPSAVSRDKVASGGGGVGDGVQEPTTGNWRGMLKTSKAEELLAEEKSKPIPIMPASPQKGHAVNLLDVPVPVARKLSAREQRDCEVIERLIKSYFLIVRKNIQDSVPKAVMHFLVNHVKDTLQSELVGQLYKSSLLDDLLTESEDMAQRRKEAADMLKALQGASQIIAEIRETHLW
As for B1, the binding result was “binds”.

The values are drawn from article PMC4551322 (Molecular Biology of the Cell, 2015).
